Results taken from US20160146829A1 (University of California, published 2016).
Ends that are not written are not given here. * marks the point of attachment. Biotin = O=C1N[C@H]2[C@H](CS[C@H]2CCCCC(=O)*)N1

Experiments:
[1] = target: T1, pCp-1B, biotinylated alemtuzumab binding peptide (not fully specified (bridges); also: incubated with sodium tetrathionate (oxidizing) before binding); assay: nano-pore optical interferometry (SkiPro); biotinylated peptide on streptavidin chip, whole mAb in solution
T1 construct: Synthetic peptide (Sigma-Genosys); For ELISA it was captured on NeutrAvidin plates; also called Cp-1 (biotinylated peptide)
T1 peptide: ACGSLSPSSCGGK(Biotin)

[2] = target: T1, pCp-1B, biotinylated alemtuzumab …; assay: peptide ELISA, biotinylated peptide on NeutrAvidin plate, antibody diluted in TBST, anti-human IgG POD detection

B1: alemtuzumab (antibody, V domains shown)
VH: QVQLQESGPGLVRPSQTLSLTCTVSGFTFTDFYMNWVRQPPGRGLEWIGFIRDKAKGYTTEYNPSVKGRVTMLVDTSKNQFSLRLSSVTAADTAVYYCAREGHTAAPFDYWGQGSLVTVSS
VL: DIQMTQSPSSLSASVGDRVTITCKASQNIDKYLNWYQQKPGKAPKLLIYNTNNLQTGVPSRFSGSGSGTDFTFTISSLQPEDIATYYCLQHISRPRTFGQGTKVEIKR
- Kd [1]: 163 nM
- koff [1]: 0.00132 s⁻¹
- kon [1]: 8130 M⁻¹ s⁻¹
- EC50 (read off the curve) [2]: ~0.3 µg/mL
